T1: FcγRIIb (human, UniProt P31994 43-217)
T1 construct: extracellular domain; Soluble extracellular domain with C-terminal His tag, used as analyte; also called FcgRIIb; CD32B; not shown: His tag at the C terminus
T1 sequence (looked up): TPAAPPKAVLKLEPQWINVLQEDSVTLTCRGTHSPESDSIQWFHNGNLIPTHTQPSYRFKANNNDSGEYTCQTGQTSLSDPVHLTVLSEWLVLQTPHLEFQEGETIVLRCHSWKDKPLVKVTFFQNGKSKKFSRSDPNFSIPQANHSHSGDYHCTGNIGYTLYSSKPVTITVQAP

B1: GpH7-A5/GpH7-B3 variant A327_06M/GpL16-k0 (antibody, human IgG1, kappa)
heavy 1: not shown
heavy 2: not shown
light: DIVMTQSPLSLPVTPGEPASISCQASESLVHSNRNTYLHWYLQKPGQSPQLLIYKVSNRFSGVPDRFSGSGSGTDFTLKISRVEAEDVGVYYCSQNTHVPPTFGQGTKVEIERTVAAPSVFIFPPSDEQLKSGTASVVCLLNNFYPREAKVQWKVDNALQSGNSQESVTEQDSKDSTYSLSSTLTLSKADYEKHKVYACEVTHQGLSSPVTKSFNRGEC
notes: He Ab: mutation in one H chain only; also called He Ab
B2: GpH7-A5/GpH7-B3 variant S324_02A/GpL16-k0 (antibody, human IgG1, kappa)
heavy 1: not shown
heavy 2: not shown
light: B1 light
notes: as for B1
B3: GpH7-A5/GpH7-B3 variant I336_09D/GpL16-k0 (antibody, human IgG1, kappa)
heavy 1: not shown
heavy 2: not shown
light: B1 light
notes: as for B1
B4: GpH7-A5/GpH7-B3 variant S324_15Y/GpL16-k0 (antibody, human IgG1, kappa)
heavy 1: not shown
heavy 2: not shown
light: B1 light
notes: as for B1
B5: GpH7-A5/GpH7-B3 variant S298_09D/GpL16-k0 (antibody, human IgG1, kappa)
heavy 1: not shown
heavy 2: not shown
light: B1 light
notes: as for B1
B6: GpH7-A5/GpH7-B3 variant S324_19Q/GpL16-k0 (antibody, human IgG1, kappa)
heavy 1: not shown
heavy 2: not shown
light: B1 light
notes: as for B1
B7: GpH7-A5/GpH7-B3 variant I336_16H/GpL16-k0 (antibody, human IgG1, kappa)
heavy 1: not shown
heavy 2: not shown
light: B1 light
notes: as for B1
B8: GpH7-A5/GpH7-B3 variant N325_05P/GpL16-k0 (antibody, human IgG1, kappa)
heavy 1: not shown
heavy 2: not shown
light: B1 light
notes: as for B1
B9: GpH7-A5/GpH7-B3 variant S324_18N/GpL16-k0 (antibody, human IgG1, kappa)
heavy 1: not shown
heavy 2: not shown
light: B1 light
notes: as for B1
B10: GpH7-A5/GpH7-B3 variant S298_10E/GpL16-k0 (antibody, human IgG1, kappa)
heavy 1: not shown
heavy 2: not shown
light: B1 light
notes: as for B1
B11: GpH7-A5/GpH7-B3 variant S298_19Q/GpL16-k0 (antibody, human IgG1, kappa)
heavy 1: not shown
heavy 2: not shown
light: B1 light
notes: as for B1
B12: GpH7-A5/GpH7-B3 variant I336_10E/GpL16-k0 (antibody, human IgG1, kappa)
heavy 1: not shown
heavy 2: not shown
light: B1 light
notes: as for B1
B13: GpH7-A5/GpH7-B3 variant N325_12R/GpL16-k0 (antibody, human IgG1, kappa)
heavy 1: not shown
heavy 2: not shown
light: B1 light
notes: as for B1
B14: GpH7-A5/GpH7-B3 variant S324_16H/GpL16-k0 (antibody, human IgG1, kappa)
heavy 1: not shown
heavy 2: not shown
light: B1 light
notes: as for B1
B15: GpH7-A5/GpH7-B3 variant S324_09D/GpL16-k0 (antibody, human IgG1, kappa)
heavy 1: not shown
heavy 2: not shown
light: B1 light
notes: as for B1
B16: GpH7-A5/GpH7-B3 variant S337_01G/GpL16-k0 (antibody, human IgG1, kappa)
heavy 1: not shown
heavy 2: not shown
light: B1 light
notes: as for B1
B17: GpH7-A5/GpH7-B3 variant N325_16H/GpL16-k0 (antibody, human IgG1, kappa)
heavy 1: not shown
heavy 2: not shown
light: B1 light
notes: as for B1
B18: GpH7-A5/GpH7-B3 variant N325_02A/GpL16-k0 (antibody, human IgG1, kappa)
heavy 1: not shown
heavy 2: not shown
light: B1 light
notes: as for B1
B19: GpH7-A5/GpH7-B3 variant S324_14T/GpL16-k0 (antibody, human IgG1, kappa)
heavy 1: not shown
heavy 2: not shown
light: B1 light
notes: as for B1
B20: GpH7-A5/GpH7-B3 variant I336_11K/GpL16-k0 (antibody, human IgG1, kappa)
heavy 1: not shown
heavy 2: not shown
light: B1 light
notes: as for B1
B21: GpH7-A5/GpH7-B3 variant I336_18N/GpL16-k0 (antibody, human IgG1, kappa)
heavy 1: not shown
heavy 2: not shown
light: B1 light
notes: as for B1
B22: GpH7-A5/GpH7-B3 variant S298_14T/GpL16-k0 (antibody, human IgG1, kappa)
heavy 1: not shown
heavy 2: not shown
light: B1 light
notes: as for B1

Tests used:
FcγRIa = target: T2, FcγRIa (human, UniProt P12314 16-292); assay: SPR (Biacore), captured antibody, FcγR as analyte, relative binding
T2 construct: extracellular domain; Soluble extracellular domain with C-terminal His tag, used as analyte; also called FcgRI; CD64; not shown: His tag at the C terminus
T2 sequence (P12314 16-292): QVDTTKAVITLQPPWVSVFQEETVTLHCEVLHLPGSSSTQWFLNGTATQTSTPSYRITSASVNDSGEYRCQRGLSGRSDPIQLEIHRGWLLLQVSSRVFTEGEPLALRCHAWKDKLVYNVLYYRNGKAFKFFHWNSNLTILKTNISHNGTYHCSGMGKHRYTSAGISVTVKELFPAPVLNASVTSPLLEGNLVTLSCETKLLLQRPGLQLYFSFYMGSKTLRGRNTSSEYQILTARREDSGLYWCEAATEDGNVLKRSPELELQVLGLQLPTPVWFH
Method: (§1) The heterodimerized antibodies He Abs in which one of the H chains was introduced with an alteration were assayed for their binding activities to each activating FcγR and inhibitory FcγR according to the method described in Example 4. […] The activating FcγRs in FIGS. 26, 27, 28, and 29 are FcγRIa, FcγRIIa (R), FcγRIIa (H), and FcγRIIIa, respectively.
(§2) Analysis of interaction between objective antibody and the FcγR was carried out using Biacore T100 (GE Healthcare). HBS-EP+ (GE Healthcare) was used as the running buffer, and the measurement temperature was set to 25° C. Chips produced by immobilizing the antigen peptide by the amine coupling method to a Series S Sencor Chip CM5 (GE Healthcare), or alternatively, chips produced by allowing preliminarily biotinylated antigen peptides to interact with and immobilize onto a Series S Sensor Chip SA (certified) (GE Healthcare) were used. Antibodies of interest were captured onto an antigen peptide-immobilized chip, and allowed to interact to each FcγR diluted with running buffer. To regenerate and repeatedly use the chip, the antibodies captured on the chip were washed off by reacting 10 mM glycine-HCl, pH 1.5.

FcγRIIb = target: T1, FcγRIIb; assay: as above
Method: as §1, §2

| Binder | He/Con_1a (FcγRIa) | He/Con_2b (FcγRIIb) |
| --- | --- | --- |
| B1 | 103 % of GpH7-A5/GpH7-B3/GpL16-k0 | 59.5 % of GpH7-A5/GpH7-B3/GpL16-k0 |
| B2 | 103 % of GpH7-A5/GpH7-B3/GpL16-k0 | 78.3 % of GpH7-A5/GpH7-B3/GpL16-k0 |
| B3 | 104 % of GpH7-A5/GpH7-B3/GpL16-k0 | 92.1 % of GpH7-A5/GpH7-B3/GpL16-k0 |
| B4 | 114 % of GpH7-A5/GpH7-B3/GpL16-k0 | 88.2 % of GpH7-A5/GpH7-B3/GpL16-k0 |
| B5 | 106 % of GpH7-A5/GpH7-B3/GpL16-k0 | 48.3 % of GpH7-A5/GpH7-B3/GpL16-k0 |
| B6 | 112 % of GpH7-A5/GpH7-B3/GpL16-k0 | 66.8 % of GpH7-A5/GpH7-B3/GpL16-k0 |
| B7 | 101 % of GpH7-A5/GpH7-B3/GpL16-k0 | 85.8 % of GpH7-A5/GpH7-B3/GpL16-k0 |
| B8 | 88.8 % of GpH7-A5/GpH7-B3/GpL16-k0 | 26 % of GpH7-A5/GpH7-B3/GpL16-k0 |
| B9 | 116 % of GpH7-A5/GpH7-B3/GpL16-k0 | 81.1 % of GpH7-A5/GpH7-B3/GpL16-k0 |
| B10 | 108 % of GpH7-A5/GpH7-B3/GpL16-k0 | 47.6 % of GpH7-A5/GpH7-B3/GpL16-k0 |
| B11 | 109 % of GpH7-A5/GpH7-B3/GpL16-k0 | 73.3 % of GpH7-A5/GpH7-B3/GpL16-k0 |
| B12 | 108 % of GpH7-A5/GpH7-B3/GpL16-k0 | 89.8 % of GpH7-A5/GpH7-B3/GpL16-k0 |
| B13 | 84.2 % of GpH7-A5/GpH7-B3/GpL16-k0 | 19.1 % of GpH7-A5/GpH7-B3/GpL16-k0 |
| B14 | 113 % of GpH7-A5/GpH7-B3/GpL16-k0 | 83.5 % of GpH7-A5/GpH7-B3/GpL16-k0 |
| B15 | 104 % of GpH7-A5/GpH7-B3/GpL16-k0 | 85.8 % of GpH7-A5/GpH7-B3/GpL16-k0 |
| B16 | 107 % of GpH7-A5/GpH7-B3/GpL16-k0 | 92 % of GpH7-A5/GpH7-B3/GpL16-k0 |
| B17 | 95.1 % of GpH7-A5/GpH7-B3/GpL16-k0 | 70.1 % of GpH7-A5/GpH7-B3/GpL16-k0 |
| B18 | 96.8 % of GpH7-A5/GpH7-B3/GpL16-k0 | 64.4 % of GpH7-A5/GpH7-B3/GpL16-k0 |
| B19 | 121 % of GpH7-A5/GpH7-B3/GpL16-k0 | 88.4 % of GpH7-A5/GpH7-B3/GpL16-k0 |
| B20 | 105 % of GpH7-A5/GpH7-B3/GpL16-k0 | 90.3 % of GpH7-A5/GpH7-B3/GpL16-k0 |
| B21 | 108 % of GpH7-A5/GpH7-B3/GpL16-k0 | 97.6 % of GpH7-A5/GpH7-B3/GpL16-k0 |
| B22 | 107 % of GpH7-A5/GpH7-B3/GpL16-k0 | 77.9 % of GpH7-A5/GpH7-B3/GpL16-k0 |
